Laboratory results as given in the supplement of paper PMC9170038.

Test system: MS2 coat protein
Experiment: apparent KD of MS2 coat protein; higher = weaker reporter binding
Details: Eterna round: R107
Protocol: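 RNA-MaP round R107: designed RNA switches with theophylline, tryptophan, arginine or FMN aptamers are transcribed on-chip within common flanks. They are titrated with SNAP-549-labelled MS2 coat protein in RNA-MaP buffer (100 mM Tris pH 7.5, 80 mM KCl, 4 mM MgCl2), without ligand or with the indicated ligand. Median apparent KD per design.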

[1] = input ligand: theophylline 20 uM
[2] = input ligand: tryptophan 2.4 mM
[3] = input ligand: theophylline 2 mM

Sequence | apparent KD of MS2 coat protein (input ligand: arginine 13.2 mM) [nM] | apparent KD of MS2 coat protein [1] [nM] | apparent KD of MS2 coat protein [2] [nM] | apparent KD of MS2 coat protein (input ligand: none) [nM] | apparent KD of MS2 coat protein [3] [nM]
AUCGUACCUGAUGAUACCAGCAAGUGAUCAUAACAUGAGGAUCACCCAUGUAAUCAGUGAUGCCCUUGGCAGCAUAAUCGAUACA [Same State - Theophylline B (Freestyle 4)] | 91.6 | 204 | 164 | – | –
AUACAUGAGGAUCACCCAUGUUAUAGUGAAGGAGCGACAUUUAGGUCAGGUAGGUCGCACUAUUGAAUUAUUAUUCUCAGUUCUU [JR_ExcArginiA_Sub019] | 14.2 | 21.8 | 15.2 | 13.2 | 13.7
CCUGCGUUUCUUUUCUUUCGCAGGAAUGAUACCAGUAGGGAAACCUACCCUUGGCAGCAUGGGACAUGAGGAUCACCCAUGUAAU [SSThA NP+V+V2 #2] | 255 | 346 | 408 | – | –
CGCCACAUGAGGAUCACCCAUGUAAUGGCGCGAGGACCGGUACGGCCGCCACUCGCCUGGCAGUGAGCGCAUGCGGCCUGGGUAU [Exclusion Tryp A GF9] | 12.2 | 13.3 | 13.3 | 10.6 | 14.4
UGUAUGGACUGAAGGAGCGGAAAAUAACCAUGAGGAUCACCCAUGGAAUAGGCGAAAGCCAUCCAGGUAGGUCGCAGUCCAUACU | 23.4 | 32.4 | 31.6 | 31.6 | 36.6
CGGUUUGUGAUGGAUACCAGCAGAGAAAAUGUUUAUCCUGACAUGAGGAUCACCCAUGUGUGCCCUUGGCAGCUGUUGUGGGCUG [8.X] | 57.3 | 85.7 | 51.1 | – | –
CAUGUGAAAAUAAGAAGAAGAAGAAUAAAUCGAGGACCGGUACGGCCGCCACUCGUCGAAUCACAUGAGGAUCACCCAUGUAGCC [Tryptofun] | 26.3 | 52.6 | – | – | 69
AGUGUUAUAACUGAUACCAGACUUUUGCUUAUACAUGAGGAUCACCCAUGUAAAAUGGUUGUCCCUUGGCAGCAGAAGUUACACA [JR_SSTheophyB_Sub008] | 104 | 96.1 | 58.6 | – | –
ACUAGUUGUGCAGAUACCAGACAUGAGGAUCACCCAUGUUUGGGAUCUAAUGAUCAUCCUGUCCCUUGGCAGCUGUACAUCUAGA [Omei Theo B Exc v2] | 51.9 | 234 | 89.9 | – | –
UCGUGUGUUUCGGAUACCAGUGAAAUCGAUACAUGAGGAUCACCCAUGUGAGAGGAUGUACACCCUUGGCAGCUGUCUGUAGCGG [asczmullin] | 26.9 | 38 | 38.3 | – | –
ACGAUAGGACUUGAGGAUCACCCAGGUGAUACCAGCCUGGAAACAGGCCCUUGGCAGCACUAAUACUCCAAUAACCUAUCGAAUA [TheoAX 16 #MicroSwitchBubble #AlternativeMS2] | 341 | 347 | 332 | 195 | 417
AUACAUGAGGAUCACCCAUGUAUAGUUGAAGGAGCGACCAGAGGGUCAGGUAGGUCGCAGCGCAUGAGGUAAGCCCAUGUAUGCU [#1 Exclusion - Arginine A Attempt #16 (Inspired by Pi)] | 22.7 | 44 | 17.2 | 22.8 | 70
UAAUAAAUAAAUCCAAGGUGAAGGUCAGAUACCAGCCAGAUAACUGGCCCUUGGCAGCUGAAUAAGCUUGAGGAUCACCCAAGUA [TheoAS 26 #OpenEnded #MS2Late #AlternativeMS2] | 27.5 | 68.4 | 32.8 | – | 275
UAAAACAUGAGGAUCACCCAUGUAAUUGAUACCAGAGUGAUGAUCCUCCCUUGGCAGCAAAUAACGCAUUGAUUACAAUGCGAAA [Mat - Same State Theophlline A - Mod of Eli - D27] | 27.9 | 105 | 35 | – | –
GGUACAUGAGGAUCACCCAUGUAUUAGUGCCGAGGACCGGUACGGCCGCCACUCGCUUCACAUGAGGAUCACCCAUGUGUCACUG [SSTA DOUBLE!!! :-D #14] | 23.6 | 35.9 | – | – | 36.1
AAUAACAUGAGGAUCACCCAUGUAAAAGAUACCAGAGUGAUGAUCCUCCCUUGGCAGCUUAACGCUGAUUGAUUACAAUCAGCGA [TheoAS 3 #Tail #MS2BeforeAptamer #BothOrNeither] | 46.4 | 128 | 67.1 | – | –
GGGUACAUCGCGGCCGCCACUCAUGUAAAUGCAUGAGGAUCACCCAUGUCGAUGGAGACAUCGGAGAGGACCGGGUGAUGUACCG | 108 | 268 | 193 | 259 | 313
UAAACUACACAUGAGGAUCACCCAUGUGGCCGAGGACCGGUACGGCCGCCACUCGUGUGUUAAUAAUAGAACUGCAAGGUUCUGU [Enindidiso] | 75.6 | 228 | – | – | 272

Sequence | apparent KD of MS2 coat protein (input ligand: arginine 13.2 mM) [nM] | apparent KD of MS2 coat protein [1] [nM] | apparent KD of MS2 coat protein [2] [nM] | apparent KD of MS2 coat protein (input ligand: none) [nM] | apparent KD of MS2 coat protein [3] [nM]
UUCAGCUAGUCGGCCGCCACUACAUGAGGAUCACCCAUGUAGGUCCACACUGCUUCGGCAGUGAGUAGGACCGGGACUAGCUGAG | 7.07 | 15.2 | 15.4 | 9.66 | 10.5
AUUCUUUACUGAAGGAGCGUCAUUCUUACAUGAGGAUCACCCAUGUUUAUUCUUUAUGAUUGACAGGUAGGUCGCAGAUUUUUUA [#11 Same State - Arginine B] | 19.5 | 24.4 | 17 | 17.8 | 19
UGACAUUGCUCAGAUACCAGACAUGAGGAUCACCCAUGUACCAAGGUAAAGAAAUAACGUGUCCCUUGGCAGCUGAGCAAUGUCU [TheoBX 1 #MS2Left #Theo2] | 10.6 | 14.8 | 10.4 | – | –
UUAGUAACGACGGCCGCCACUGGAUAUGAACAUGAGGAUCACCCAUGUAGAGAUCCUAGAAUAAACAGGACCGGGUCUGAUAAUA [Exclusion Tryptophane B GF 2] | 17.9 | 21.6 | – | – | 17.3
ACGACAUGAGGAUCACCCAUGUACUCUGAAGGAGCGUCGAUUACGACAGGUAGGUCGCAGGCUAAGGAUGGUGAUGCUCAAGACG [Exclusion Arginine A GF8] | 53.5 | 90.4 | 57.8 | 87.7 | 114
UAUGUCGCCGAAGAUACCAGCCUGGCAAGCAACAUGAGGAUCACCCAUGUAAUUACUUAUGGCCCUUGGCAGCUUCAAAUAGAGC [theeternabot_sameState_MS2_Theo_B_42] | 10.8 | 15.5 | 12.4 | – | –
UAUAUAUAUAUUGAUACCAGCAGAGAAAACAUAUAUCCUAACAUGAGGAUCACCCAUGUAUGCCCUUGGCAGCGAUAUAUAUAUA [8.A] | 24.9 | 28.1 | 23.5 | – | –
UCGCUCUGGGUGAAUCCCAGAGAUGUGGAAGGAGCGGAGGAAACUCCAGGUAGGUCGCCAUCGAACAUGAGGAUCACCCAUGUAC [Same State - Arginine A (Freestyle 28)] | 35.6 | 60.7 | 46.4 | 56.8 | 66.4
AAUUACAUGAGGAUCACCCAUGUGGCACAACGAGGACCGGUACGGCCGCCACUCGGUGCUGUACCACAAAACAUGCACGGGAAAG [theeternabot_sameState_MS2_Trp_A_6] | 33.1 | 81.4 | 30.9 | 31.6 | 39
UCCAGACAUGAGGAUCACCCAUGUUGUGAUACCAGAACCGUGGAGUUCCCUUGGCAGCACUAAGAAGUUCCUGGAUCAGCUAGCG [theeternabot_sameState_MS2_Theo_A_9] | 29.9 | 36.2 | 30 | – | –
UAUCGUCAGACGGCCGCCACUAGAACAUGAGGAUCACCCAUGUAAGUGGCUGGUUCAUGGGUGUCUAGGACCGGGUCUGACGAAU [(Trp1)-(Ms2)-(T)'-(M)'-(Trp2)_Design20] | 14.8 | 21.2 | – | – | 17.6
CUAUUGAUAGCGGCCGCCACUUACUCAUGAGGUAACAACAUGAGGAUCACCCAUGUUUGAGGAUCAAGGACCGGGCUAUUGAUAG [AstrosSSTryB#13] | 30 | 33.9 | 23.8 | 27.6 | 30.9
GGUAUGUAUUCGGAAACGAAUGCAUACCAACGAGGACCGGUACGGCCGCCACUCGCCGUCCUCAAACAUGAGGAUCACCCAUGUA [Ex Tryptophan A 7] | 19.5 | 30.5 | – | – | 30.6
AUAACAUGAGGAUCACCCAUGUAAGCAGAUACCAGCUAGGAAACUAGCCCUUGGCAGCUGCAAUCCUCAUGUAUUGCAGCUGCAA [(M1)-(M2)-(T1)-(T2)-(M)'-(T)'_Design1] | 21.5 | 26.2 | 15.3 | – | –
GCACCAGGUACGGAUACCAGACAUUGCCAAUUGGGUGAACAUGAGGAUCACCCAUGUUAAGUCCCUUGGCAGCCGUACCUGGUGC [ETB NP+V+V2 #6 Same Structure] | 11.4 | 17.7 | 11.5 | 10.6 | 178
AUGGUAGGACAGCACAUAUAAGCUUGUGAUACCAGCUAGAAAACUAGCCCUUGGCAGCACAUUACAUGAGGAUCACCCAUGUCCC [EThA NP+V+V2 #1] | 44.1 | 68.6 | 50 | – | –
ACUAGUUGUGCAGAUACCAGACAUGAGGAUCACCCAUGUUUGGGAUCUAAUGAUCAUCUUGUCCCUUGGCAGCUGUACAUCUAGA [Omei Theo B Exc v1] | 27.1 | 72.6 | 55.5 | – | –
GACCCAUGAGUUGUAAAAGCUCAUGGGUCGCGAGGACCGGUACGGCCGCCACUCGGCUGUACAUGAGGAUCACCCAUGUCAGGGU [#1 Same State - Tryptophan A Attempt #27 (HarryS)] | 44.8 | 568 | – | – | 527
